Tests used:
human Ubc13 = target: T1, human Ubc13 (human, UniProt P61088 1-152); test: SEC
T1 sequence (looked up): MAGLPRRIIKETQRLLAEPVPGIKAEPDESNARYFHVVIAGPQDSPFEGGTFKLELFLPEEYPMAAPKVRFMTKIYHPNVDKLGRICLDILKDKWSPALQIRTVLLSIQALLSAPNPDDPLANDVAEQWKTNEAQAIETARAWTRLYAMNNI

SAXS = target: the molecule itself; test: SAXS

B1: human TRAF6 RZ1 (residues 50-159) (domain or fragment, UniProt Q9Y4K3 50-159, looked up)
chain: MEEIQGYDVEFDPPLESKYECPICLMALREAVQTPCGHRFCKACIIKSIRDAGHKCPVDNEILLENQLFPDNFAKREILSLMVKCPNEGCLHKMELRHLEDHQAHCEFAL
Human Ubc13
  binding result: binds

B2: human TRAF6 RZ12 (residues 50-187) (domain or fragment, UniProt Q9Y4K3 50-187, looked up)
chain: MEEIQGYDVEFDPPLESKYECPICLMALREAVQTPCGHRFCKACIIKSIRDAGHKCPVDNEILLENQLFPDNFAKREILSLMVKCPNEGCLHKMELRHLEDHQAHCEFALMDCPQCQRPFQKFHINIHILKDCPRRQV
Human Ubc13
  binding result: binds

B3: human TRAF6 RZ123 (residues 50-211), wild type (domain or fragment, UniProt Q9Y4K3 50-211, looked up)
chain: MEEIQGYDVEFDPPLESKYECPICLMALREAVQTPCGHRFCKACIIKSIRDAGHKCPVDNEILLENQLFPDNFAKREILSLMVKCPNEGCLHKMELRHLEDHQAHCEFALMDCPQCQRPFQKFHINIHILKDCPRRQVSCDNCAASMAFEDKEIHDQNCPLA
SAXS
  stoichiometry N: 2

Source: paper PMC2834951 (Nature structural & molecular biology, 2009)
